This is an account of results in paper PMC8902816, “Plasmodium falciparum GBP2 Is a Telomere-Associated Protein That Binds to G-Quadruplex DNA and RNA”.

Data set [1] has as its target T1, PfGBP2 (Plasmodium falciparum, UniProt Q8IJX3 1-246).
T1 sequence: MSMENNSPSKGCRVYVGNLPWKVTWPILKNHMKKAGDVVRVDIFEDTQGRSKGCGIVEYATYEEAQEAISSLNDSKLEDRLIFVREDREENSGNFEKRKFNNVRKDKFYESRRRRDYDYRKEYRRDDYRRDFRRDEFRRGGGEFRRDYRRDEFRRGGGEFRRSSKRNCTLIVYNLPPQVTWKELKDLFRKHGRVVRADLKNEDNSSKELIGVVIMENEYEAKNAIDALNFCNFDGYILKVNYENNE
In words: EMSA; 50 ng dIdC; EMSA: 1 ug GBP2 (bacterial extract), 50 ng dIdC, 20 fmol biotin probe, 20 min, room temperature, 200-fold competitor, 0.5x TBE 4-12% gel; dot blot/ThT: oligos folded in 100 uM (so in the source) Tris pH 7.8 and 100 uM KCl, or LiCl up to 1 M. To be noted: protein: recombinant; tags: 6xHis at N and C termini (pET-28a+); label: 3' biotin (EMSA). A general note: In EMSA bound probe runs differently from free probe, usually more slowly.

The target in data set [2] is T1, PfGBP2. The data set can be described thus: EMSA; 50 ng dIdC; not efficiently competed by unlabeled RNA, partially by unlabeled DNA; EMSA: 1 ug GBP2 (bacterial extract), 50 ng dIdC, 20 fmol biotin probe, 20 min, room temperature, 200-fold competitor, 0.5x TBE 4-12% gel; dot blot/ThT: oligos folded in 100 uM (so in the source) Tris pH 7.8 and 100 uM KCl, or LiCl up to 1 M. As to conditions: protein: recombinant; tags: 6xHis at N and C termini (pET-28a+); label: 3' biotin (EMSA).

B1: A/T only (ssDNA)
DNA: TTAAAATTTATAATTATAAATTTTAA
With B1, the binding result in data set [1] is on record as “no binding”.

B2: RNA G-rich 2 (ssRNA)
RNA: UUCAGGGUUCAGGGUUCAGGGUUCAGGGUUC
In the case of B2, in data set [2], the binding result was “binds”.

B3: G-rich 1 scram (ssDNA)
DNA: GTGTATGCGTTATGTGTATGCGTGTGAGTG
Regarding B3, the binding result in data set [1] was “no binding”.
